Laboratory results published in the supplement of paper PMC12042874.
± gives the uncertainty stated by the source.

Assay: amyloid nucleation score (Sup35N fusion, yeast selection) (log enrichment); library NNK1; higher = more nucleation; inactive = no reads after selection
Method in brief: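 Yeast lacking psi expressed peptides of 20 random codons fused to Sup35N, received 100 μM copper sulfate for 24 hours, and were then grown for 7 days at 30°C on medium lacking adenine and uracil. Illumina sequencing of input and output plasmid inserts provided the reads. Nucleation scores are DiMSum log enrichments of output over input, centred on the mode of non-aggregating sequences. Any sequence with under 100 input reads was excluded.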

| Substance | amyloid nucleation score |
| --- | --- |
| MHYGTLSIVV | 0.302 ± 0.3 |
| IRQQKGFGCNAFWMVLG | 0.83 ± 0.78 |
| GNALYICRF | 0.572 ± 0.39 |
| WFARNTLLEWEN | -1.57 ± 2.1 |
| WLISFGDFDGSMFKMMSNTK | 2.67 ± 0.13 |
| IVRIESVEFSDYADFAFEVR | 0.67 ± 0.59 |
| ASAVIWGERAKLRKYLIPTR | 0.94 ± 0.7 |
| LAWTSRDWRKFEYIMGIWGI | -1.01 ± 2.4 |
| HYSRDSLVVWYI | -0.228 ± 0.56 |
| TSEGHSLRNEEEGSSEGRCK | 0.905 ± 0.51 |
| FLARNFCIC | 5.67 ± 0.064 |
| FYVPDWYNCSCIIWGRDACA | 4.19 ± 0.056 |
| SMTLMWTTPSSYIAWI | -0.792 ± 0.48 |
| CHQAEPGIGMRSCTLVGEGV | 1.36 ± 0.61 |
| MPIVKLTWLYTGVGAKPQVS | 0.211 ± 0.26 |
| HSVSRCLVNEGNGFSFCKDP | 1.45 ± 0.39 |
| KVASSDMSDLSTH | inactive |
| PLHAANDLSCPENLDVWYHE | -0.696 ± 0.83 |
| HATMVSALLVWGW | -0.286 ± 1.9 |
| SMIGCYMTF | 0.073 ± 0.36 |
| AFYRAFTPCISVPIRND | 0.765 ± 0.46 |
| NFLNGLMLTSRVRKFLASGY | -0.161 ± 0.6 |
| SGGNLFRVMRWSMHFVSVRL | -0.355 ± 0.33 |
| SDVLGMSQAIGASTSVAEVV | inactive |
| SYGNVLVGHGV | -0.044 ± 0.61 |

| Substance | amyloid nucleation score |
| --- | --- |
| LRHMLIAAFSDWVKYWGCAR | 0.194 ± 0.51 |
| ATYYFICMLIVQVHFCLFTM | -0.992 ± 0.5 |
| RSLPNPL | -0.29 ± 0.42 |
| LRRLRTSYMLRAVLKLFLQP | 0.956 ± 0.58 |
| RIGFPSQSGLLVVAVLTQSA | -0.379 ± 0.43 |
| LLSQVTCGMQTVRRNGGIIR | -0.195 ± 0.65 |
| VVPFRLLDIQRNGCFDHGYP | 0.142 ± 1.4 |
| CVGDFVME | -0.318 ± 0.98 |
| FHYWFIIKVPTWMVYRDLTA | -0.203 ± 0.34 |
| DYGAKDHFPIAITKEVMSLN | -0.394 ± 1.2 |
| RYVSLDRPYTSNNNRYAKGV | 0.475 ± 0.22 |
| PALDAYSQKFELTCCLDTLH | inactive |
| GCFSPITQWSMWHVWRVRRQ | 0.49 ± 0.97 |
| HQLLTVL | -0.997 ± 0.28 |
| GFVEVNTCLKEVSLPSNMPS | 0.714 ± 0.5 |
| RAMDYFALEIQLVPRRLVQL | 0.18 ± 0.41 |
| KCAWNQVNDSNLVAYRASC | 5.13 ± 0.097 |
| RCYHWVDLVCVRVGTRACFL | 0.877 ± 1.1 |
| HSGYTYDRRYPCNYDFSIQV | inactive |
| SLSNCTGKNVLVTLS | 0.428 ± 1.2 |
| DKHSLKILYKCGHPSTDNGQ | 1.51 ± 0.5 |
| RVHSIDENVWMVQGQNSRAG | 3.73 ± 0.16 |
| VCNCCLHVYIPSRAGNRPMR | 8.251 ± 0.072 |
| VIFYSLYSSVWFDSIYEGLT | -0.566 ± 1.5 |
| SNFMGQD | 0.733 ± 0.7 |

| Substance | amyloid nucleation score |
| --- | --- |
| IHYIPAFYRAKSILLFVYAC | -0.241 ± 0.5 |
| ISHSIAVRNNLLLFGPCQNR | 2.12 ± 0.12 |
| GQIGACVPLIGVAMGYLS | -0.418 ± 1.5 |
| DHGFLGE | -0.172 ± 0.76 |
| MYLVM | 0.191 ± 0.48 |
| YIWSVYLLLCWHWCRMSCSG | 1.23 ± 0.6 |
| RMYIHMYS | 1.32 ± 0.33 |
| VTQFSVWLVLRICGLTLRWY | 0.31 ± 1 |
| SILQFALLMNSRDLVHRGYF | 3.38 ± 0.17 |
| NVIYFNVLVAPLHIPMLDLG | 3.75 ± 0.14 |
| SVVLCMNCGGCLMEIKGGGY | 4.89 ± 0.096 |
| YSSCFRSGIF | -0.68 ± 0.6 |
| LCMLWLKVKRHRDMRSIGIW | -0.003 ± 0.42 |
| RLEADYLTVIESVGHSATGS | inactive |
| VHNNCRWFAGKFPLSRVVLR | 0.553 ± 1.2 |
| FMHAGIYL | 0.043 ± 1 |
| SSLGIGFAPLISSFISC | -0.429 ± 0.64 |
| GVGWISKPNHLDTFITTS | 0.738 ± 0.35 |
| TDCGSTMNGGCINMCVCGHR | 7.422 ± 0.069 |
| FSFYMLRFFSKTSYYSLMSF | -0.721 ± 0.27 |
| TDCQRYI | 1.6 ± 0.54 |
| FPLAIVLIVN | 0.059 ± 0.39 |
| FEVSGMCRVQVVTYNFFSSS | 6.99 ± 0.088 |
| DCQVAVPLRIVKANSVILCG | 0.26 ± 0.37 |
| GMEFMIMGNLVITGVIDKCH | -0.262 ± 0.39 |

| Substance | amyloid nucleation score |
| --- | --- |
| TFVYVKASLSSTIAASYVAQ | 1.34 ± 0.27 |
| KAPNRE | -0.063 ± 0.66 |
| WFFGRYHGTGQNMFRG | 2.15 ± 0.18 |
| IVNRHEL | 0.63 ± 0.9 |
| ISLSSGLALKPS | 1.41 ± 0.48 |
| FVMLGWFSRNIGLYEVFVFT | 0.502 ± 0.36 |
| FNLWIP | 2.13 ± 0.17 |
| WRTARFSGKF | -0.048 ± 0.4 |
| MLGDAIMGM | 1.09 ± 0.57 |
| SYSGTVCNRLRLVLVVDD | -0.098 ± 0.47 |
| PTRYRKLKRQAKATYIHSNP | -0.552 ± 1.6 |
| SVRYYLLYHNFIMSSADKLS | 6.485 ± 0.05 |
| LNRGYAGFSLN | -1.86 ± 1.1 |
| PLFVVRIDEISSDSIRGAGH | 1.88 ± 0.53 |
| VPTCMRVYIRGNSHNGMLAA | 1.1 ± 0.4 |
| TLSGSYVF | -0.567 ± 0.3 |
| RIPRFLNSLSEYYYLDFHYG | 1.15 ± 0.23 |
| VNFFLFRQCKGSFAWNHTVA | 6.336 ± 0.058 |
| VRTSYFVAGSGSNAWGGENE | -0.956 ± 0.99 |
| LVYPYESLFHFESGASH | 0.32 ± 0.21 |
| HFNFNFAQSRNEMLVASG | -1.16 ± 1.6 |
| KYKFVRANLILFGMVRG | -0.115 ± 0.25 |
| RKTNLGWHSICRA | -0.435 ± 0.28 |
| YGGNL | 0.169 ± 0.52 |
| NMCFYELDGYMLGNYLARQF | -1.51 ± 1.3 |

| Substance | amyloid nucleation score |
| --- | --- |
| TFGINRYNFRISARIGQVCI | -0.284 ± 0.22 |
| CEFLIFTFRVSGEVLLQSRA | 0.265 ± 0.92 |
| KKLVA | 0.286 ± 0.43 |
| IHLGCCMLFRRLGECRLVV | -0.409 ± 0.29 |
| LINKNSSSAFCVMLGHYWVR | -1.03 ± 0.66 |
| THNWNNSYSWSPPDALVSCK | 0.263 ± 0.51 |
| NLNFLFFQWSNIMVCHQNQV | 4.62 ± 0.057 |
| MVKRCVDNFRKWKSVDSSYR | 0.671 ± 0.37 |
| VQLRLMDRNREHYGYEESTR | 0.22 ± 0.43 |
| VITRFYGSVGLRIPAIAVVL | 0.886 ± 0.58 |
| CCTNM | 0.332 ± 0.22 |
| RVLRQMKSIC | -0.44 ± 0.83 |
| NSVFVPFGKEF | -0.493 ± 0.39 |
| CCPWEEHGICNEWRHRGSGT | -0.199 ± 0.46 |
| YSDSMTIKRDSLWVIGTLEL | 1.94 ± 0.21 |
| YEQVNIRNG | 0.138 ± 0.87 |
| YSGPGAGFGGLLCIGNAQNL | -0.108 ± 0.62 |
| RHALIYMVQVAQAGWGGLEV | -0.767 ± 0.78 |
| HMWIEFSAVLFSYDMASSNV | -0.417 ± 0.52 |
| HESNMSMYYERYMLLSRNGS | 0.269 ± 0.23 |
| VFLRRVINTSFGSMMV | 0.976 ± 1.1 |
| TSTPNVWRKR | inactive |
| RIDQNICGIVNMVFR | 6.311 ± 0.047 |
| DVMRYWVMRVVMPAKFKKAY | -0.244 ± 1.1 |
| TMDGHLGYRSRNILLLSVFV | -0.41 ± 0.55 |

| Substance | amyloid nucleation score |
| --- | --- |
| YPSCAGVWFKHNRLFFV | 0.096 ± 0.79 |
| PNQVYGTAFCGDEKNRMRWK | 4.6 ± 0.079 |
| SGGIQCTGGRISVSCAVGKN | -0.224 ± 0.94 |
| IEDAALRSKEPGFVQHNYSS | 4.17 ± 0.077 |
| CVSYNLFLWSYFKRWSNRTC | 0.141 ± 0.79 |
| PLRDKESVLMWLYSYWVTNI | 0.017 ± 0.32 |
| FYYVRLDARMVDSSSFV | -0.542 ± 0.28 |
| RVNTCMSRGRA | -0.367 ± 0.61 |
| SYLFVKGLIYSLSRLCLEVN | -1.4 ± 0.7 |
| AIALQV | -1.18 ± 0.94 |
| CHIGSRPLASMKAFPHCDVA | 1 ± 0.57 |
| AEHLICLGYGQRWGNYTGLP | 0.164 ± 0.62 |
| TCSLNLYLDSDVFLCLCCLW | 5.65 ± 0.074 |
| MPIEYG | -0.27 ± 0.71 |
| FCDRNIIVCSELGKGWLWLR | 1.4 ± 0.25 |
| MFVSLSSFSYLGKTLLVFFV | inactive |
| LYMYRSYI | 0.137 ± 0.42 |
| LEYENCHCIILYLKHAQYLL | inactive |
| LEGKPSEFYRNFHIYGVVYQ | -0.531 ± 1.4 |
| QHWNGTNNMILYYFPRPSAR | 5.25 ± 0.065 |
| MYLFICVGSMVNQDVNEMMR | 3.84 ± 0.084 |
| SHRWWIM | -0.597 ± 1.1 |
| DKAFLWQFEELVAA | -0.331 ± 0.72 |
| RNWCIMFLTYVL | 3.74 ± 0.083 |
| KVFGTRPSQCLGFN | -0.806 ± 0.65 |

| Substance | amyloid nucleation score |
| --- | --- |
| RDLPFVTSSLCCSNTSGCMF | 0.429 ± 0.53 |
| KQCGVKWFMAG | 0.437 ± 1.4 |
| QGRLYSH | 0.438 ± 0.39 |
| RRHAHLWLYLGNLGCWLEEV | -0.139 ± 0.38 |
| LDVFICTADHTVRYLHHTAV | 1.08 ± 0.66 |
| VSFNTFYRRSFPFQLRTTSV | 0.329 ± 0.29 |
| AFLRVIDQQLRLEIHIIMKL | inactive |
| GLYKYYRSLILSLVSFNFS | 1.18 ± 0.16 |
| SSTLFMKSYIFDPQKLNSPP | 0.375 ± 0.42 |
| RARRGWSTGDEQHMSGKGIK | 0.097 ± 0.49 |
| IRSLLYYLFGFLMFWVIRIW | 0.226 ± 0.66 |
| VLFKGHLIEV | 0.138 ± 0.3 |
| FSNRWFC | -0.578 ± 0.31 |
| KSYYGSLNLAMSTSLYIQTM | 0.769 ± 0.34 |
| IRCLSMIWVTKDVLIIWRSQ | 0.159 ± 0.93 |
| RVGSFMVNPSSCMSYAFWLR | 0.443 ± 0.49 |
| TCLMRSRLACMFVRINEW | 1.19 ± 0.62 |
| VMFPGKQHT | 0.012 ± 0.91 |
| NGSLLWYVCSSWNVMHDGSV | -1 ± 1.3 |
| NIILSYLYFRTARVISEDRR | 4.7 ± 0.081 |
| SLLSAMDLPPFLSYRLSPRW | 0.059 ± 1.2 |
| FIAQLYVNEMFDSLTLRRGD | 0.415 ± 0.33 |
